How the values were obtained:
[1] = target: T1, Human active C1s (Complement Technology) (human, UniProt P09871 16-688); experiment: cell-based or functional assay
T1 sequence: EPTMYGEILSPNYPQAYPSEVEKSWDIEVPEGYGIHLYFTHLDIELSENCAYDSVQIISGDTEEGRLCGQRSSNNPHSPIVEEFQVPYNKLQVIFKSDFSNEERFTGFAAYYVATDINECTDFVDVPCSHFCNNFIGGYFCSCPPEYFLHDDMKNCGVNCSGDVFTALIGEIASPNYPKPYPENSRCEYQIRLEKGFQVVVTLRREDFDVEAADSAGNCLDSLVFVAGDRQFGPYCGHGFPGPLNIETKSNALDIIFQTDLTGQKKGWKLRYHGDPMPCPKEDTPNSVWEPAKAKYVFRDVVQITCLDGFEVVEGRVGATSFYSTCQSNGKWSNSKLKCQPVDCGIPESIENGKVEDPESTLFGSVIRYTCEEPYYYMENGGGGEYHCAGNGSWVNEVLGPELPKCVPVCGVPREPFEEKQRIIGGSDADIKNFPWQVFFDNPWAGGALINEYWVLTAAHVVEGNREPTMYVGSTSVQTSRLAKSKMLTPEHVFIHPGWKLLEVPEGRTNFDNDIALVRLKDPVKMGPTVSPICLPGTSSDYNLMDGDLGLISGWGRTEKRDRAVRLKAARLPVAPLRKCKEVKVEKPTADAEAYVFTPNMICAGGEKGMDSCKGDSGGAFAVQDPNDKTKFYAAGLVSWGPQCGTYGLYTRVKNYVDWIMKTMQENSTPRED

[2] = target: T2, His-tagged recombinant human TfR (produced in-house) (human, UniProt P02786 89-760); experiment: affinity of bispecific purified from CHO cells (SPR; details not restated)
T2 construct: also called hTfR; transferrin receptor 1
T2 sequence (P02786 89-760 limits assumed): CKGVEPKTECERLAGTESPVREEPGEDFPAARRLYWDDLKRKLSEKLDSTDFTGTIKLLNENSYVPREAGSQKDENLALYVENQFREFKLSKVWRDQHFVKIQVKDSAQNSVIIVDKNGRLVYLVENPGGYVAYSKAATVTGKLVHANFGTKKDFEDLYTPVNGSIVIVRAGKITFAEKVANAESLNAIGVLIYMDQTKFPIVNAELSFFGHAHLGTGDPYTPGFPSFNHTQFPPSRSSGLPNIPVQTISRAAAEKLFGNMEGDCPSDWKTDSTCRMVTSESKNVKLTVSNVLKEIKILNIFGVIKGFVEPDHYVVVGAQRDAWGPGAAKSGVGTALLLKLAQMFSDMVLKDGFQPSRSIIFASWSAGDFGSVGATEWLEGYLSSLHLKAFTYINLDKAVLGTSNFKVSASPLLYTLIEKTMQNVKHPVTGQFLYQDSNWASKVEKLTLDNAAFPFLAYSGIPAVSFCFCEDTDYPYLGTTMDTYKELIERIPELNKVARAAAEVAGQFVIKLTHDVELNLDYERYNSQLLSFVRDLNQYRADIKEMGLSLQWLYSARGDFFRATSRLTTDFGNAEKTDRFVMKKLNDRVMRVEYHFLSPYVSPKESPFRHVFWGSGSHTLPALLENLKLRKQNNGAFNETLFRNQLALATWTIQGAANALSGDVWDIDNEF

[3] = target: T1, Human active C1s (Complement Technology); experiment: as above
[4] = target: T3, cynomolgus TfR (cynomolgus, UniProt H9EXL1 89-760 (rhesus entry)); experiment: as above
T3 construct: also called Cyno TfR; cTfR
T3 sequence (chain, as listed by the source): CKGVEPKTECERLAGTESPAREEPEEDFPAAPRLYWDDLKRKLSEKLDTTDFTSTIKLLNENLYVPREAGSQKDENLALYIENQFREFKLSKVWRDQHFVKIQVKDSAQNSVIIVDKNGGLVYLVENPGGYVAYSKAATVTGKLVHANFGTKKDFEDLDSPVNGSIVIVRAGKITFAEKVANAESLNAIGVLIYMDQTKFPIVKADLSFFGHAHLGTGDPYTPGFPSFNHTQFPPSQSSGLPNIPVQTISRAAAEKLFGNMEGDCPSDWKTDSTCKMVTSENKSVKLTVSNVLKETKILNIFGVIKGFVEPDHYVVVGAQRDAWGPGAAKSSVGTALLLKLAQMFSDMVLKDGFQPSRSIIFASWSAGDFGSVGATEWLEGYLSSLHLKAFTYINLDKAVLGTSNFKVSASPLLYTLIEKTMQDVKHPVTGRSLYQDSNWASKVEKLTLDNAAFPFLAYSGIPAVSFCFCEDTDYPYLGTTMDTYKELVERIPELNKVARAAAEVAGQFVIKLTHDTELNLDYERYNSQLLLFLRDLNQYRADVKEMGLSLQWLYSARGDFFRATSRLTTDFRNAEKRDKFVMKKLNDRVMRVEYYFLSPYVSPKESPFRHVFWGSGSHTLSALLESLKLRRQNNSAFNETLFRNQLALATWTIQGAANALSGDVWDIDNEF

[5] = target: T4, cynomolgus aC1s (cynomolgus, UniProt A0A2K5VQX9 16-685); experiment: as above
T4 construct: also called Cyno aC1s; caC1s
T4 sequence: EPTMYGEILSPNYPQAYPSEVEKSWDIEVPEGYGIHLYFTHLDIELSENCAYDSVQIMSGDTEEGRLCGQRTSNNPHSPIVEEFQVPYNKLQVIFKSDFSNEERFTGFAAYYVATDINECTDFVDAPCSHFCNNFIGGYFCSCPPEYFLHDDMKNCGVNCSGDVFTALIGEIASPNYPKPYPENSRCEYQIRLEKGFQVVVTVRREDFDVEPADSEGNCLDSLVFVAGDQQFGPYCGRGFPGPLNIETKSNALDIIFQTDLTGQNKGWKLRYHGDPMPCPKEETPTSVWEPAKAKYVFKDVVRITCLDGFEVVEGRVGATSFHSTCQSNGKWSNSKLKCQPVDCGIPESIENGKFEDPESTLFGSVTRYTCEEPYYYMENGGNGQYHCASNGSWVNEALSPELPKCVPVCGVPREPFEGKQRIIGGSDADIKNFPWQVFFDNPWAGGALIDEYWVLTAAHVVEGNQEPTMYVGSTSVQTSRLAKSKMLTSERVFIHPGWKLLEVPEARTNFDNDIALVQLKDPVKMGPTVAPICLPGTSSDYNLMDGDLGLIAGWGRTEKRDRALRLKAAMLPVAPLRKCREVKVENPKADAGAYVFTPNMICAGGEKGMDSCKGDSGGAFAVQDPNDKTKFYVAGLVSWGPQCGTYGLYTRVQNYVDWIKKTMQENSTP

B1: bispecific anti-aC1s (L2)/anti-TfR (531v25.v6) antibody (bispecific antibody, human IgG4 S228P, kappa)
heavy 1: QVQLVQSGAEVKKPGASVKLSCTASGFNIKDDYIHWVKEAPGQGLEWIGRIDPADGHTKYAPKFQVKVTITADTSTSTAYLELSSLRSEDTAVYYCARYGYGREVFDYWGQGTTVTVSSASTKGPSVFPLAPCSRSTSESTAALGCLVKDYFPEPVTVSWNSGALTSGVHTFPAVLQSSGLYSLSSVVEVPSSSLGTKTYTCNVDHKPSNTKVDERVESDYGPPCPPCPAPEFEGGPSVFLFPPKPKDTLMISRTPEVTCVVVDVSQEDPEVQFNWYVDGVEVHNAKTKPREEQFNSTYRVVSVLTVLHQDWLNGKEYKCKVSNKGLPSSIEKTISKAKGQPREPQVCTLPPSQEEMTKNQVSLSCAVKGFYPSDIAVEWESNGQPENNYKTTPPVLDSDGSFFLVSRLTVDKSRWQEGNVFSCSVLHEALHSRFTQKSLSLSLG
light 1: DIVMTQSPDSLAVSLGERATISCKSSQSVDYEGDSYLNWYQKKPGQPPKLLIYDASNLESGVPDRFSGSGSGTAFTLTISSLQAEDVAVYYCQQSNEDPWTFGQGTKVEIKRTVAAPAVFIFPPSKKQLKSGTASVVCLLKNFYPREAKVQWKVDNALQSGNSQESVTEQDSKDSTYSLSSTLTLSKADYEKHKVYACEVTHQGLSSPVTKSFNRGEC
heavy 2: QVQLVQSGAEVKKPGASVKVSCKASGYTFTRYYLNWVRKAPGQGLEWIGMIDPSVSETHYAQKFQGRATLTVDKSTSTAYMELSSLRSEDTAVYYCSQIRLPYYYAMDSWGQGTTVTVSSASTKGPSVFPLAPCSRSTSESTAALGCLVKDYFPEPVTVSWNSGALTSGVHTFPAVLQSSGLYSLSSVVTVPSSSLGTKTYTCNVDHKPSNTKVDKRVESKYGPPCPPCPAPEFEGGPSVFLFPPKPKDTLMISRTPEVTCVVVDVSQEDPEVQFNWYVDGVEVHNAKTKPREEQFNSTYRVVSVLTVLHQDWLNGKEYKCKVSNKGLPSSIEKTISKAKGQPREPQVYTLPPCQEEMTKNQVSLWCLVKGFYPSDIAVEWESNGQPENNYKTTPPVLDSDGSFFLYSRLTVDKSRWQEGNVFSCSVLHEALHSHYTQKSLSLSLG
light 2: DIQMTQSPSSLSASVGDRVTITCRASQDIESFLNWYQEKPGKAPKLLIYYTSRLQSGVPSRFSGSGSGTDYTLTISSLQPEDFATYYCQQGNTLPRTFGGGTKVEIKRTVAAPSVFIFPPSDEQLKSGTASVVCLLNNFYPREAKVQWKVDNALQSGNSQESVTEQDSKDSTYSLSSTLTLSKADYEKHKVYACEVTHQGLSSPVTKSFNRGEC
notes: Purified from CHO cells; monovalent for aC1s
With B1 the “IC50, Wieslab Complement Pathway Assay” value [1] was 1.37 µg/mL, the “IC90, Wieslab Complement Pathway Assay” value [1] was 10.2 µg/mL and the Kd [2] was 29.9 nM. It also gave a Kd [3] of 3.19 nM, a Kd [4] of 52.8 nM and a Kd [5] of 0.243 nM.

B2: bispecific anti-aC1s (L2H5)/anti-TfR (531v25.v6) antibody (bispecific antibody, human IgG4 S228P, kappa)
heavy 1: QVQLVQSGAEVKKPGASVKLSCTASGFNIKDDYIHWVKEAPGQGLEWIGRIDPADGHTKYAPKFQVKVTITAATSTSTAYLQLSSLRSEDTAVYYCARYGYGREVFDYWGQGTTVTVSSASTKGPSVFPLAPCSRSTSESTAALGCLVKDYFPEPVTVSWNSGALTSGVHTFPAVLQSSGLYSLSSVVEVPSSSLGTKTYTCNVDHKPSNTKVDERVESDYGPPCPPCPAPEFEGGPSVFLFPPKPKDTLMISRTPEVTCVVVDVSQEDPEVQFNWYVDGVEVHNAKTKPREEQFNSTYRVVSVLTVLHQDWLNGKEYKCKVSNKGLPSSIEKTISKAKGQPREPQVCTLPPSQEEMTKNQVSLSCAVKGFYPSDIAVEWESNGQPENNYKTTPPVLDSDGSFFLVSRLTVDKSRWQEGNVFSCSVLHEALHSRFTQKSLSLSLG
light 1: DIVMTQSPDSLAVSLGERATISCKSSQSVDYEGDSYLNWYQKKPGQPPKLLIYDASNLESGVPDRFSGSGSGTAFTLTISSLQAEDVAVYYCQQSNEDPWTFGQGTKVEIKRTVAAPAVFIFPPSKKQLKSGTASVVCLLKNFYPREAKVQWKVDNALQSGNSQESVTEQDSKDSTYSLSSTLTLSKADYEKHKVYACEVTHQGLSSPVTKSFNRGEC
heavy 2: QVQLVQSGAEVKKPGASVKVSCKASGYTFTRYYLNWVRKAPGQGLEWIGMIDPSVSETHYAQKFQGRATLTVDKSTSTAYMELSSLRSEDTAVYYCSQIRLPYYYAMDSWGQGTTVTVSSASTKGPSVFPLAPCSRSTSESTAALGCLVKDYFPEPVTVSWNSGALTSGVHTFPAVLQSSGLYSLSSVVTVPSSSLGTKTYTCNVDHKPSNTKVDKRVESKYGPPCPPCPAPEFEGGPSVFLFPPKPKDTLMISRTPEVTCVVVDVSQEDPEVQFNWYVDGVEVHNAKTKPREEQFNSTYRVVSVLTVLHQDWLNGKEYKCKVSNKGLPSSIEKTISKAKGQPREPQVYTLPPCQEEMTKNQVSLWCLVKGFYPSDIAVEWESNGQPENNYKTTPPVLDSDGSFFLYSRLTVDKSRWQEGNVFSCSVLHEALHSHYTQKSLSLSLG
light 2: DIQMTQSPSSLSASVGDRVTITCRASQDIESFLNWYQEKPGKAPKLLIYYTSRLQSGVPSRFSGSGSGTDYTLTISSLQPEDFATYYCQQGNTLPRTFGGGTKVEIKRTVAAPSVFIFPPSDEQLKSGTASVVCLLNNFYPREAKVQWKVDNALQSGNSQESVTEQDSKDSTYSLSSTLTLSKADYEKHKVYACEVTHQGLSSPVTKSFNRGEC
notes: as for B1
In the case of B2, the “IC50, Wieslab Complement Pathway Assay” value [1] is reported as 1.23 µg/mL, the “IC90, Wieslab Complement Pathway Assay” value [1] is reported as 9.7 µg/mL and the Kd [2] is reported as 34.3 nM. For the same binder, the Kd [3] was 2.64 nM, the Kd [4] was 48.9 nM and the Kd [5] was 0.315 nM.

Reference: patent US20250376511A1 (Sanofi, published 2025)
